Publication PMC7308368, “Structure of the polymerase ε holoenzyme and atomic model of the leading strand replisome” (Nature Communications, 2020)

B1: Dpb3 subunit of S. cerevisiae DNA polymerase ε holoenzyme (natural protein)
chain: MSNLVKEKAPVFPISKVKKIAKCDPEYVITSNVAISATAFAAELFVQNLVEESLVLAQLNSKGKTSLRLSLNSIEECVEKRDNFRFLEDAIKQLKKNSALDKKRELNMQPGRSDQEVVIEEPELHEDDGVEEEEEEDEVSEEEEPVHNEELLDDSKDQQNDKSTRSVASLLSRFQYKSALDVGEHSDSSDIEVDHTKSTDP
notes: DNA polymerase epsilon subunit C Dpb3, S. cerevisiae; histone fold domain and C-terminal region; The holoenzyme was purified on anti-Flag resin; source: yeast, subunit genes integrated under the Gal1/10 promotor, galactose-induced; purified as holoenzyme (anti-Flag resin, MonoS)

Key:
[1] = target: T1, Pol2 subunit of S. cerevisiae DNA polymerase ε holoenzyme (S. cerevisiae, UniProt P21951 1-2222); experiment: cryo-EM structure; recombinant Pol ε holoenzyme at ~1.6 mg/ml on C-flat holey carbon grids; rigid-state particles selected; 3.5 Å map; sample buffer 50 mM Hepes pH 7.5, 50 mM KGlu, 200 mM KAcetate, 1 mM DTT, 4 mM MgCl2; conditions: both partners purified
T1 construct: DNA polymerase epsilon catalytic subunit Pol2, S. cerevisiae; 2222-residue polypeptide with catalytic NTD, NTD-CTD linker (Thr-1186 to Ser-1308) and non-catalytic CTD; The holoenzyme was purified on anti-Flag resin; source: yeast, subunit genes integrated under the Gal1/10 promotor, galactose-induced; purified as holoenzyme (anti-Flag resin, MonoS)

[2] = target: B1; experiment: as above; conditions: both partners purified

T1 sequence (P21951 whole entry): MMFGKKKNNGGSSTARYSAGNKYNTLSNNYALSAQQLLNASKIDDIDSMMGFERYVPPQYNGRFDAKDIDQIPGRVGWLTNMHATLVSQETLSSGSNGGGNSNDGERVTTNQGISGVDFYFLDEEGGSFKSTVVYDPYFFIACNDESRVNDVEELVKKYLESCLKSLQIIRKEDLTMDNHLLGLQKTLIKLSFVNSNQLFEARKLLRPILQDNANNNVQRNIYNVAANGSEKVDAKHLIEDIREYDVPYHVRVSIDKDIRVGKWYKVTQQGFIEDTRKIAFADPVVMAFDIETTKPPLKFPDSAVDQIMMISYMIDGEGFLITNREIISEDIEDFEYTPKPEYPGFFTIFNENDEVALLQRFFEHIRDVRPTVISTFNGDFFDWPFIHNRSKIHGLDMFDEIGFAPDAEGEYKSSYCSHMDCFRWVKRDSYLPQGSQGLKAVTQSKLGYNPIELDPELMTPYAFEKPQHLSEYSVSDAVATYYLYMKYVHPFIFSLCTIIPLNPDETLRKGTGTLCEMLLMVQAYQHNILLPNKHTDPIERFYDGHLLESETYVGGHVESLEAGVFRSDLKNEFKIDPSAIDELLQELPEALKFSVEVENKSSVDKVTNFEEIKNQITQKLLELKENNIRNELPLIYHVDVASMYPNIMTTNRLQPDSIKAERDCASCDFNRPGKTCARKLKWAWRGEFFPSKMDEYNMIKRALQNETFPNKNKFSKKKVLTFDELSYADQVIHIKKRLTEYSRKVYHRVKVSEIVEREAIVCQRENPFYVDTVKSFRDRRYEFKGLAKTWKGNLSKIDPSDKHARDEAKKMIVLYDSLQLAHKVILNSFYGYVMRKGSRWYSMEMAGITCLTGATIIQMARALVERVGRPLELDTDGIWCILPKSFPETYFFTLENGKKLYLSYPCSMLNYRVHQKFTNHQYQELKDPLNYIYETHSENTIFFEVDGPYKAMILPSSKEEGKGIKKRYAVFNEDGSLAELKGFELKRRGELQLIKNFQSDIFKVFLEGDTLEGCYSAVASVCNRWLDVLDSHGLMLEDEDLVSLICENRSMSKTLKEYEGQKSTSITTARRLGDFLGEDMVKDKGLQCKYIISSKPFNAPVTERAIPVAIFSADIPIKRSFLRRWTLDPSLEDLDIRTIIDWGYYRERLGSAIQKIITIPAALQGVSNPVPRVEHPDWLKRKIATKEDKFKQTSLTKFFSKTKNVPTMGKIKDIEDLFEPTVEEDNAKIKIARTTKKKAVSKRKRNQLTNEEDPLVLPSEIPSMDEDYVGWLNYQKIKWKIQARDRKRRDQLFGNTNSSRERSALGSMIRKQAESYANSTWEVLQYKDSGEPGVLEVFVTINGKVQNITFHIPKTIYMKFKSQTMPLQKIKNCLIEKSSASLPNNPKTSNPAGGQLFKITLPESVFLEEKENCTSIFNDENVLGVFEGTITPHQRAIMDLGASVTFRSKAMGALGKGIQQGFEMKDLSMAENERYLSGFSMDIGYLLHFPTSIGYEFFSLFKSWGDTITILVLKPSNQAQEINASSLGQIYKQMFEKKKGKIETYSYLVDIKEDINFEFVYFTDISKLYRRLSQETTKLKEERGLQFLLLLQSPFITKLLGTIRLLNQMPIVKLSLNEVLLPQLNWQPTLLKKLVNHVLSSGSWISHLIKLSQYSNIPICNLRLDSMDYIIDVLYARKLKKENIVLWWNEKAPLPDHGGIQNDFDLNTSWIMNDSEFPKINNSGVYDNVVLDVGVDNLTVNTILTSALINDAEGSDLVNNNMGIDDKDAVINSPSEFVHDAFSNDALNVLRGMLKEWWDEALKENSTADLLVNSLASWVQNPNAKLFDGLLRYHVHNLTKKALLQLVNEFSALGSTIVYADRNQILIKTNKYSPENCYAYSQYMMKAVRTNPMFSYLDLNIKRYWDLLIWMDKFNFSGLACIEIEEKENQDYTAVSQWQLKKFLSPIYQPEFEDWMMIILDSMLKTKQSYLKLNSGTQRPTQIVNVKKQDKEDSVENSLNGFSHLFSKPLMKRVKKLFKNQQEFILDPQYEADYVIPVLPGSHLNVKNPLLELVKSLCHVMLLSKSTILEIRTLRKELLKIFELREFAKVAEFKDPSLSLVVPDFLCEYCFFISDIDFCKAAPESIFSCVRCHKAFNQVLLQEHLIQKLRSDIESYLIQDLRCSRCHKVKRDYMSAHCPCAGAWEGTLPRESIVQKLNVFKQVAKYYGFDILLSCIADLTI

| Binder | binding result [1] | binding result [2] |
| --- | --- | --- |
| Dpb2 subunit of S. cerevisiae DNA polymerase ε holoenzyme (natural protein, DNA polymerase epsilon subunit B Dpb2, S. cerevisiae; N-terminal helical domain (8-94, disordered), PDE domain (168-209 and 349-689), OB domain (210-348); The holoenzyme was purified on anti-Flag resin; also called Dbp2; B subunit; source: yeast, subunit genes integrated under the Gal1/10 promotor, galactose-induced; purified as holoenzyme (anti-Flag resin, MonoS)) MFGSGNVLPVKIQPPLLRPLAYRVLSRKYGLSIKSDGLSALAEFVGTNIGANWRQGPATIKFLEQFAAVWKQQERGLFIDQSGVKEVIQEMKEREKVEWSHEHPIQHEENILGRTDDDENNSDDEMPIAADSSLQNVSLSSPMRQPTERDEYKQPFKPESSKALDWRDYFKVINASQQQRFSYNPHKMQFIFVPNKKQNGLGGIAGFLPDIEDKVQMFLTRYYLTNDRVMRNENFQNSDMFNPLSSMVSLQNELSNTNRQQQSSSMSITPIKNLLGRDAQNFLLLGLLNKNFKGNWSLEDPSGSVEIDISQTIPTQGHYYVPGCMVLVEGIYYSVGNKFHVTSMTLPPGERREITLETIGNLDLLGIHGISNNNFIARLDKDLKIRLHLLEKELTDHKFVILGANLFLDDLKIMTALSKILQKLNDDPPTLLIWQGSFTSVPVFASMSSRNISSSTQFKNNFDALATLLSRFDNLTENTTMIFIPGPNDLWGSMVSLGASGTLPQDPIPSAFTKKINKVCKNVVWSSNPTRIAYLSQEIVIFRDDLSGRFKRHRLEFPFNESEDVYTENDNMMSKDTDIVPIDELVKEPDQLPQKVQETRKLVKTILDQGHLSPFLDSLRPISWDLDHTLTLCPIPSTMVLCDTTSAQFDLTYNGCKVINPGSFIHNRRARYMEYVPSSKKTIQEEIYI | binds | – |
| Dpb4 subunit of S. cerevisiae DNA polymerase ε holoenzyme (natural protein, DNA polymerase epsilon subunit D Dpb4, S. cerevisiae; histone fold domain and C-terminal region; The holoenzyme was purified on anti-Flag resin; also called Dbp4; source: yeast, subunit genes integrated under the Gal1/10 promotor, galactose-induced; purified as holoenzyme (anti-Flag resin, MonoS)) MPPKGWRKDAQGNYPTTSYIKEQENITIQDLLFPKSTIVNLAREVPQQSGKKLLINKDASLALQRGATVFVNHLLLFAREIAKSQDKKSCSVDDVLSALDHIGHSALKGPVRDKLDEYQAAVEQRKKEKLDSGEVDADGDIDMGEDKENVPVEKVKEHDEIEEQGDALQDVEESSEKKQKTESQDVETRVQNLEQT | binds | binds |
| B1 | binds | – |
